The target in test [1] is MotS_(D30A) (B. subtilis). Put plainly: high-speed atomic force microscopy.
In the next test the target is MotS (B. subtilis). Put plainly: high-speed atomic force microscopy.

Experimental findings from publication PMC5665596 are described below.

The term stoichiometry N denotes the number of molecules, sites or subunits per partner or assembly.

Turning to MotS_(D30A) (natural protein), the percent of particles with an unfolded conformation of MotSC in test [1] came out at 18%.
In the test with MotS (B. subtilis), MotS (natural protein) registered a stoichiometry N of 2.
